“Also recorded” adds a separate entry of the source.
Tests used:
FXa = FXa (Bos taurus, UniProt P00743); experiment: Cleavage of fusion proteins by FXa, SDS PAGE; format: biochemical, bovine; conditions: protease:fusion protein 1:1000, 23° C.
Procedure: (§1) Both H6-IEPD-RAP (SEQ ID NO: 23) and H6-IEGR-RAP were in 100 mM HEPES pH 7.4 and the following incubations were set up at room temperature, 23° C., with the protease:fusion protein ratio 1:1000: • 1. […] 400 μl (app. 400 μg) H6-GrB-RAP+2 μl GrB-H6 (app. 0.4 μg)
250 μl (app. 400 μg) H6Ubi-IEPD-ApoA1+0.4 μg GrB-H6 C228F • 2.

[1] = Colorimetric Granzyme B activity assay with Ac-IEPD-pNA (absorbance at 405 nm); format: biochemical; conditions: for Granzyme B activity ΔOD405/min: pro-IEGR-GrB-H6 incubated with FXa at 4° C.; for completion of self-activation: 4° C., without addition of previously activated Granzyme B; for ΔOD405/min (self-activation): 100 mM HEPES pH 7.5
Procedure: GrB-H6 activity was measured using the following mix: 500 μl buffer, 2 μl 100 mM Ac-IEPD-pNA, and 5 μl GrB-H6.
Recombinant self-activating human Granzyme B derivatives IEPD-GrB-H6 and IEAD-GrB-H6 were produced as described in Example 2 by using the expression vectors pT7-IEPD-GrB-H6 and pT7-IEAD-GrB-H6 described in Example 1. The IEAD-GrB-H6 and IEPD-GrB-H6 proteins were eluted from the SP Sepharose columns and stored at 4° C. for 2 days before the activity of the respective top fractions were determined by using a colorimetric assay. For this purpose the following was mixed: 500 μl buffer (100 mM HEPES pH 7.5), 2 μl 100 mM Ac-IEPD-pNA, and 5 μl protein solution. The change in absorption was then determined at 405 nm during 3 min. The activity was further determined after additional incubation for 1 and 2 days at 4° C.
The activity of the activated and purified GrB-H6 was measured in different buffers using the Ac-IEPD-pNA substrate: 500 μl buffer, 2 μl 100 mM Ac-IEPD-pNA, and 5 μl GrB-H6. The ΔOD405/min was calculated from the first 0.75 min unless otherwise noted.

GrB-H6 = biological target: T1, GrB-H6 (Homo sapiens, UniProt P10144, R55Q); experiment: Cleavage of fusion proteins by GrB-H6, SDS PAGE; format: biochemical; conditions: for fusion protein cleaved at IEPD↓ and internal AQPD↓ site: 10 μl GrB-H6, no Ca^2+
T1 construct: MGSIEGR (N, cleaved yes); made in house; host or cells: E. coli BL21
Procedure: (§2) The fusion protein H6-TripUB IEPD↓SP (SEQ ID NO: 22) (prepared as described in Example 7) eluted from the Ni^2+-NTA-agarose column was gel filtrated into 100 mM HEPES pH 7.5 and 200 μl samples of the top-fraction was incubated at room temperature with either 0, 1 or 10 μl of activated GrB-H6 (approximately 0, 0.2 and 2 μg GrB-H6).
With the H6-TripUB IEPD↓SP (SEQ ID NO: 22) fusion protein the following nine incubations (Table 9) were set up using 200 μl H6-TripUB IEPD↓SP (SEQ ID NO: 22) and 5 μl GrB-H6 (approximately 1 μg GrB-H6) for each incubation.
as §2, with “H6-IEPD-RAP” for “H6-TripUB IEPD↓SP”, “23)” for “22)”, “7.4” for “7.5”, “GrB-H6). Samples for SDS PAGE were taken after 5, 23 and 26 hours of incubation, see FIG. 10.” for “GrB-H6).”
as §1
The fusion protein H6-IEPD-TN123 (SEQ ID NO: 25) (prepared as described in Example 7) eluted from the Q Sepharose was after final purification gel filtrated into 100 mM HEPES pH 7.5, and 200 μl samples of the top-fraction was incubated at room temperature with either 0, 1 or 10 μl of activated GrB-H6 (approximately 0, 0.2 and 2 μg GrB-H6) both with and without 5 mM CaCl2 present. Samples for SDS PAGE from the incubations without CaCl2 were taken after 12, 19 and 24 hours as well as 5 days of incubation. Samples for SDS PAGE from the incubations both with and without CaCl2 were taken after approximately 20 and 48 hours of incubation, see FIG. 14.
Each of the fusion proteins eluted from the Ni^2+-NTA-agarose column were gel filtrated into 100 mM HEPES pH 7.4 and fractions of approximately the same concentration of the five different H6-TripUB variants were used. The five variants were H6-TripUB IEPD↓SP (SEQ ID NO: 22), H6-TripUB IQAD↓SP (SEQ ID NO: 26), H6-TripUB IQAD↓SG (SEQ ID NO: 27), H6-TripUB VGPD↓SP (SEQ ID NO: 28) and H6-TripUB VGPD↓FG (SEQ ID NO: 29). Of each fusion protein 200 μl was incubated at room temperature, 23° C., with 5 μl of activated GrB-H6 (approximately 1 μg GrB-H6). The protease:fusion protein ratio was thereby 1:500.

Sequence of FXa (P00743 234-492 limits assumed): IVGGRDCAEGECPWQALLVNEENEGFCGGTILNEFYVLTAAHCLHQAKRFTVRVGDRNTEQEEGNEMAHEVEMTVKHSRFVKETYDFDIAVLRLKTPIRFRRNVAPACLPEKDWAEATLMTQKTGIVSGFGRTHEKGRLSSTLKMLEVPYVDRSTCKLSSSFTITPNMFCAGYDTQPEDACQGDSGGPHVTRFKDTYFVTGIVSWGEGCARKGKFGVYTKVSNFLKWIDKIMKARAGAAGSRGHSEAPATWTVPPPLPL
Sequence of FXa (P00743 41-180 partner limits assumed): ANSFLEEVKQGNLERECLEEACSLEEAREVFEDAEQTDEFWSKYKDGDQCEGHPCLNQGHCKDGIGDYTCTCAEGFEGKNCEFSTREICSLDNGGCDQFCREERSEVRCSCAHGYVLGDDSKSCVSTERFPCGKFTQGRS

With “H6-IEGR-RAP: FXa cleavable hexa-His RAP fusion protein with recognition sequence IEGR” the “correctly cleaved product left” value (FXa; 27 hours) was “no correctly cleaved product left” and the “fusion protein correctly cleaved” value (FXa; ½ hour) was “almost all of the fusion protein has been cleaved”.

In the case of “pro-IEGR-GrB-H6: pro-Granzyme B fusion protein with FXa recognition sequence IEGR and C-terminal hexa-His tag, SEQ ID NO:1”, the “Granzyme B activity ΔOD405/min” value ([1]; 0 hours) is reported as 0.0073 ΔOD405/min, the “Granzyme B activity ΔOD405/min” value ([1]; 2 hours) is reported as 0.0200 ΔOD405/min and the “Granzyme B activity ΔOD405/min” value ([1]; 5 hours) is reported as 0.0250 ΔOD405/min. The “Granzyme B activity ΔOD405/min” value ([1]; 19 hours) was 0.0829 ΔOD405/min, the “Granzyme B activity ΔOD405/min” value ([1]; 2 days (45 hours)) was 0.1325 ΔOD405/min and the “Granzyme B activity ΔOD405/min” value ([1]; 5 days (120 hours)) was 0.1832 ΔOD405/min.

B1: H6-IEPD-RAP: hexa-His RAP fusion protein with Granzyme B recognition site IEPD, SEQ ID NO. 23 (protein)
chain: MGSHHHHHHGSIEPDYSREKNQPKPSPKRESGEEFRMEKLNQLWEKAQRLHLPPVRLAELHADLKIQERDELAWKKLKLDGLDEDGEKEARLIRNLNVILAKYGLDGKKDARQVTSNSLSGTQEDGLDDPRLEKLWHKAKTSGKFSGEELDKLWREFLHHKEKVHEYNVLLETLSRTEEIHENVISPSDLSDIKGSVLHSRHTELKEKLRSINQGLDRLRRVSHQGYSTEAEFEEPRVIDLWDLAQSANLTDKELEAFREELKHFEAKIEKHNHYQKQLEIAHEKLRHAESVGDGERVSRSREKHALLEGRTKELGYTVKKHLQDLSGRISRARHNEL
modifications: H6-IEPD-RAP
With B1 the “GrB-sensitive sites in RAP” value (GrB-H6; 19 possible sites (19 Asp residues)) was “only one GrB-sensitive site”, the fusion protein cleaved (GrB-H6; 200 μl fusion protein + 1 or 10 μl GrB-H6, room temperature, 5 hours) was “all the H6-IEPD-RAP (SEQ ID NO: 23) has been cleaved to give the final product; also recorded: all the H6-IEPD-RAP (SEQ ID NO: 23) was cleaved to give the final product” and the “fusion protein correctly cleaved” value (GrB-H6; protease:fusion protein 1:1000, 23° C., ½ hour) was “nearly all the H6-IEPD-RAP (SEQ ID NO: 23) has been cleaved correctly”.

B2: H6-IEPD-TN123: hexa-His Tetranectin (TN123) fusion protein with Granzyme B recognition site IEPD, SEQ ID NO. 25 (protein)
chain: MGSHHHHHHGSIEPDGEPPTQKPKKIVNAKKDVVNTKMFEELKSRLDTLAQEVALLKEQQALQTVCLKGTKVHMKCFLAFTQTKTFHEASEDCISRGGTLSTPQTGSENDALYEYLRQSVGNEAEIWLGLNDMAAEGTWVDMTGARIAYKNWETEITAQPDGGKTENCAVLSGAANGKWFDKRCRDQLPYICQFGIV
modifications: H6-IEPD-TN123
In the case of B2, the “internal cleavage at AQPD↓ site” value (GrB-H6; 5 mM Ca^2+ added) is reported as “no internal cleavage is observed”, the “fusion protein cleaved at IEPD↓ and internal AQPD↓ site” value (GrB-H6; 2 days) is reported as “almost all the fusion protein has been cleaved twice” and the “fusion protein cleaved at IEPD↓ and internal AQPD↓ site” value (GrB-H6; 5 days) is reported as “almost all of the fusion protein has been cleaved twice”. For the same molecule, the “fusion protein correctly cleaved” value (GrB-H6; 200 μl fusion protein + 10 μl GrB-H6, 5 mM Ca^2+, 12 hours) was “approximately 40%” and the sites cleaved (GrB-H6; no Ca^2+ present) was “cleaved correctly at the IEPD sequence, but also just as rapidly at an internal site of the sequence AQPD”.

B3: IEPD-GrB-H6: self-activating human pro-Granzyme B with IEPD recognition site and C-terminal H6, SEQ ID NO:2 (protein)
chain: MGSIEPDIIGGHEAKPHSRPYMAYLMIWDQKSLKRCGGFLIQDDFVLTAAHCWGSSINVTLGAHNIKEQEPTQQFIPVKRPIPHPAYNPKNFSNDIMLLQLERKAKRTRAVQPLRLPSNKAQVKPGQTCSVAGWGQTAPLGKHSHTLQEVKMTVQEDRKCESDLRHYYDSTIELCVGDPEIKKTSFKGDSGGPLVCNKVAQGIVSYGRNNGMPPRACTKVSSFVHWIKKTMKRYLNSHHHHHH
modifications: C-terminal His6 tag; pro-IEPD-GrB-H6
With B3 the completion of self-activation [1] was “not completed until after a least three or four days”, the “ΔOD405/min (self-activation)” value ([1]; stored at 4° C. 2 days) was 0.1284 ΔOD405/min and the “ΔOD405/min (self-activation)” value ([1]; stored at 4° C. 3 days) was 0.1375 ΔOD405/min. For the same molecule, the “ΔOD405/min (self-activation)” value ([1]; stored at 4° C. 4 days) was 0.1351 ΔOD405/min.

B4: IEAD-GrB-H6: self-activating human pro-Granzyme B with IEAD recognition site and C-terminal H6, SEQ ID NO:3 (protein)
chain: MGSIEADIIGGHEAKPHSRPYMAYLMIWDQKSLKRCGGFLIQDDFVLTAAHCWGSSINVTLGAHNIKEQEPTQQFIPVKRPIPHPAYNPKNFSNDIMLLQLERKAKRTRAVQPLRLPSNKAQVKPGQTCSVAGWGQTAPLGKHSHTLQEVKMTVQEDRKCESDLRHYYDSTIELCVGDPEIKKTSFKGDSGGPLVCNKVAQGIVSYGRNNGMPPRACTKVSSFVHWIKKTMKRYLNSHHHHHH
modifications: pro-IEAD-GrB-H6
In the case of B4, the completion of self-activation [1] is reported as “not completed until after a least three or four days”, the “ΔOD405/min (self-activation)” value ([1]; stored at 4° C. 2 days) is reported as 0.1372 ΔOD405/min and the “ΔOD405/min (self-activation)” value ([1]; stored at 4° C. 3 days) is reported as 0.1607 ΔOD405/min. The “ΔOD405/min (self-activation)” value ([1]; stored at 4° C. 4 days) was 0.1983 ΔOD405/min.

From patent US8541200B2, “Cleavage of fusion proteins using Granzyme B protease” (Hoffmann-La Roche Inc., priority 2003, dated 2013)
